Measurements reported in patent US20160304580A1 (ALLIGATOR BIOSCIENCE, published 2016).
Positions count from the first letter of the chain named.

Columns and labels:
[1] = biological target: T1, human CTLA4-Fc (Fitzgerald #30R-CD152) (human, UniProt P16410 38-152, biotinylated in the inhibition ELISAs (sites not given)); assay: binding ELISA: CTLA4-Fc coated on the plate, sample serially diluted, detection with goat anti-human IgG Fcγ-HRP, chemiluminescence, data normalised to %
T1 construct: Bought reagent; Used plain (coated or immobilised) and biotinylated (in solution); also called biotinylated-CTLA4; human CTLA-4 (Fitzgerald); not shown: Fc of the bought fusion protein
T1 sequence: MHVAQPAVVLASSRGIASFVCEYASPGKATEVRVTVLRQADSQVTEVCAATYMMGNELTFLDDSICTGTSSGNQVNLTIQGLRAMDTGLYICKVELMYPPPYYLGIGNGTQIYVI
Experimental: (§1) Similar to the protocol described in Example 2, 96-well flat bottom high binding plates (Greiner #655074) were coated with either CTLA4-Fc (Fitzgerald #30R-CD152) or CD28-Fc (kindly provided by Simon Davis, Oxford University) by incubating overnight at 4° C. The plates were washed (Wash buffer: PBS+0.05% Tween 20 (PBST) Medicago #09-9410-100) and then blocked in PBST+3% BSA (Merck, #1.12018.0100). The plates were washed again and sample or controls (serially diluted ⅓ from 50 000-0001 nM) were added to the wells. The samples were incubated for 1 h at room temperature and then washed. Detection antibody, goat-anti-human IgG Fcγ-HRP (Jackson, #109-035-098) was added and the plates were subsequently developed using SuperSignal Pico Chemiluminescent substrate (Thermo #37069) and detected with an Envision reader (Perkin Elmer).
(§2) Binding to CD28 was too low for detection by this assay (data not shown).

[2] = biological target: T1, human CTLA4-Fc (Fitzgerald #30R-CD152); assay: binding ELISA on coated CTLA4-Fc; against wild type and H79A; upper end tied to 1040 by Table 7
Experimental: as §1, §2

[3] = biological target: T1, human CTLA4-Fc (Fitzgerald #30R-CD152); assay: binding ELISA on coated CTLA4-Fc; against wild type and H79A; lower end tied to 1042 by Table 7
Experimental: as §1, §2

[4] = biological target: T1, human CTLA4-Fc (Fitzgerald #30R-CD152); assay: SPR (Biacore); ratio [Kd for CD28] / [Kd for CTLA-4] compared with wild type
Experimental: (§3) The phage clones selected from Example 1 were re-cloned according to standard protocols into a fusion protein-format, with each clone fused to γ2/γ4 Fc. The fusion proteins were expressed in HEK293 cells. Supernatants culure of the cells were collected and the expressed fusion proteins were assayed using both ELISA and Biacore™ according to the methods set out below.
Either CTLA4-Fc (Fitzgerald #30R-CD152) or CD28-Fc (R&D systems 342-CD) was immobilized to the Biacore™ senshorship, CM5, using conventional amine coupling. The CD86 mutant molecules and controls (serially diluted ½ 100-1.5 nM) were analyzed for binding in HBs-P (GE, BR-1003-69) at a flow rate […]. The association was followed for 3 minutes and the dissociation for 10 minutes. Regeneration was performed twice using 5 mM NaOH for 30 seconds. The kinetic parameters and the affinity constants were calculated using BIAevaluation 4.1 software.

[5] = biological target: T1, human CTLA4-Fc (Fitzgerald #30R-CD152); assay: ELISA; ratio [EC50 for CD28] / [EC50 for CTLA-4] compared with wild type
Experimental: as §3
as §1, with “96-well” for “Similar to the protocol described in Example 2, 96-well”, “(R&D systems 342-CD)” for “(kindly provided by Simon Davis, Oxford University)”, “⅕” for “⅓”, “200-0.001 μg/ml)” for “50 000-0001 nM)”, “Elmer). EC50 values were calculated for both CTLA4 and CD28. The binding ratio (EC50 binding ratio=[EC50 for CD28]÷[EC50 for CTLA-4]) was calculated for each polypeptide and is shown in Table 4.” for “Elmer).”

B1: CD86 mutant clone 1040 expressed as a gamma2/gamma4 fusion (Fc fusion)
chain: APLKIQAYFNETADLPCQFANSQNLSLSELVVFWQDQENLVLNEVYLGKERFDSVDSKYMGRTSFDSDSWTLRLHNLQIKDKGRYQCIIHHKKPTGMINIHQMNSELSVLA
notes: Purified on protein A; not shown: gamma2/gamma4 Fc
For B1, the “EC50 (read off the curve)” value [1] was roughly 8 ng/mL and the “fold improvement of EC50” value [2] was 2 to 67 fold.

B2: CD86 mutant clone 1042 expressed as a gamma2/gamma4 fusion (Fc fusion)
chain: B1 chain with R51I, D56S, R84I, T95S, I98V, N99K, N104D
notes: as for B1
B2 was tested, and the “fold improvement of EC50” value [3] was 2 to 67 fold.

B3: CD86 mutant clone 904 fused to γ2/γ4 Fc (Fc fusion)
chain: LKIQAYFNETADLPCQFANSQNQSLSELIVFWQDQENLVLNEVYLGKERFDAVDSKYMGRTSFDSDSWTLRLHNLQIKDKGIYQCIIHHKKPSGMVKIHQMDSELSVLA
notes: not shown: γ2/γ4 Fc
For B3, the “fold of Kd binding ratio over wild type CD86” value [4] was greater than 4 times.

B4: CD86 mutant clone 907 fused to γ2/γ4 Fc (Fc fusion)
chain: B3 chain with I29V, R49K, A52S, D54H, I82L, S93T, V96I, Q100E, D102N
notes: not shown: γ2/γ4 Fc
For B4, the “fold of EC50 binding ratio over wild-type CD86” value [5] was roughly 10 times.
